Consider three molecules from doi:10.1101/2023.03.17.533217 (2023).

The Kd is the free concentration of one partner at which half of the binding sites on the other are occupied at equilibrium, for simple one-to-one binding.

The chains are these.
B2: Aurora A kinase (AurA), residues 122-403, dephosphorylated (domain or fragment)
chain: ESKKRQWALEDFEIGRPLGKGKFGNVYLAREKQSKFILALKVLFKAQLEKAGVEHQLRREVEIQSHLRHPNILRLYGYFHDATRVYLILEYAPLGTVYRELQKLSKFDEQRTATYITELANALSYCHSKRVIHRDIKPENLLLGSAGELKIADFGWSVHAPSSRRTTLCGTLDYLPPEMIEGRMHDEKVDLWSLGVLCYEFLVGKPPFEANTYQETYKRISRVEFTFPDFVTEGARDLISRLLKHNPSQRPMLREVLEHPWITANSSKPSNCQNKESASKQS

The target of assay [1] is B2. The experiment in a line: ITC; 150 µM danusertib. In general terms: In ITC the heat of successive injections is recorded.
Assay [2] has as its target B2. The experiment in a line: ITC.
The target in assay [3] is B2. The experiment in a line: ITC; 50 µM danusertib.
The target in assay [4] is Mb3. The experiment in a line: ITC.
The target of assay [5] is Mb3. The experiment in a line: ITC; danusertib.
Assay [6] deals with B2. The experiment in a line: ITC; danusertib.

B1: activating monobody Mb1 (designed binder)
chain: GSVSSVPTKLEVVAATPTSLLISWDAQTYQMYDYVSYYRITYGETGGNSPVQEFTVPGYYSTATISGLKPGVDYTITVYAEGYYSSYSPISINYRT
For the molecule B1, the Kd came out at 17700 nM in assay [1], 952 nM in assay [2] and 18000 nM in assay [3].
Turning to B2, the Kd in the assay with Mb3 [4] amounted to 180 nM; with Mb3 [5] it was 69 nM.

B3: inhibiting monobody Mb2 (designed binder)
chain: GSVSSVPTKLEVVAATPTSLLISWDAPAVTVVHYVITYGETGGNSPVQEFTVPGSKSTATISGLKPGVDYTITVYAIDFYWGSYSPISINYRT
As for B3, the Kd in assay [2] is 1500 nM; in assay [6], 889 nM.
